Assay results from US20190015361A1 (published 2019).

What was measured:
[1] = molecular target: T1, Aβ42 (t=24 days) (human, UniProt P05067 672-713); experiment: SPRi, Aβ spotted on chip at 20 µM, LL-37 injected 1-100 µM, nonlinear fit of response at equilibrium
T1 construct: domain: Aβ42 (residues 1-42 of the Aβ peptide); enriched in high-MW oligomers by CE; also called Aβ42 high-MW oligomers

[2] = molecular target: T2, Aβ40 (t=0 days) (UniProt P05067 672-711); experiment: SPRi, Aβ forms spotted on chip, ovalbumin injected
T2 construct: domain: Aβ40; Dissolved in PBS and spotted at 20 µM on the SPRi chip immediately after solubilization; mainly low-MW oligomers by CE; also called Aβ40 low-MW oligomers; Aβ40 solubilized in PBS
T2 sequence (P05067 672-711 limits assumed): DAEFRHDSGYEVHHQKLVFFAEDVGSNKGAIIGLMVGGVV

[3] = molecular target: T3, Aβ42 (t=0 days) (human, UniProt P05067 672-713); experiment: SPRi, Aβ forms spotted on chip, ovalbumin injected
T3 construct: domain: Aβ42 (residues 1-42 of the Aβ peptide); HFIP / CH3CN-Na2CO3-NaOH preparation, diluted to 20 µM in phosphate buffer and spotted on the SPRi chip immediately; mainly low-MW oligomers by CE; also called Aβ42 low-MW oligomers
T3 sequence (P05067 672-713 limits assumed): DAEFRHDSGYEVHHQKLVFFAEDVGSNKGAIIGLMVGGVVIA

[4] = molecular target: T1, Aβ42 (t=24 days); experiment: SPRi, Aβ forms spotted on chip, ovalbumin injected

T1 sequence (P05067 672-713 limits assumed): as above

Ka [1] [M⁻¹] | Kd [1] [µM] | binding result [2] | binding result [3] | binding result [4] | Binder
49200 | 20.3 |  |  |  | LLGDFFRKSKEKIGKEFKRIVQRIKDFLRNLVPRTES (peptide, UniProt P49913 134-170, looked up, range 134-170; Synthetic peptide; from Innovagen for SPRi/TEM/CD, from AnaSpec for the cell culture work; also called cathelicidin LL-37) [human cathelicidin peptide LL-37]
 |  | no binding (tested: 10 µM) | no binding (tested: 10 µM) | no binding (tested: 10 µM) | Ovalbumin (Sigma-Aldrich, A5503) (other, UniProt P01012 2-386, looked up, Negative control analyte in SPRi, injected at 10 µM; also called non-correlated protein; negative control sample) GSIGAASMEFCFDVFKELKVHHANENIFYCPIAIMSALAMVYLGAKDSTRTQINKVVRFDKLPGFGDSIEAQCGTSVNVHSSLRDILNQITKPNDVYSFSLASRLYAEERYPILPEYLQCVKELYRGGLEPINFQTAADQARELINSWVESQTNGIIRNVLQPSSVDSQTAMVLVNAIVFKGLWEKAFKDEDTQAMPFRVTEQESKPVQMMYQIGLFRVASMASEKMKILELPFASGTMSMLVLLPDEVSGLEQLESIINFEKLTEWTSSNVMEERKIKVYLPRMKMEEKYNLTSVLMAMGITDVFSSSANLSGISSAESLKISQAVHAAHAEINEAGREVVGSAEAGVDAASVSEEFRADHPFLFCIKHIATNAVLFFGRCVSP
